The numbers were not newly measured in publication PMC7425896, “Polypeptides derived from α-Synuclein binding partners to prevent α-Synuclein fibrils interaction with and take-up by cells” (PLoS ONE, 2020), which cites them from elsewhere.

pKd: −log10 of the molar value.

This data set has as its target α-Synuclein fibrils (Homo sapiens) (UniProt P37840). In words: sedimentation assay.

As a reminder, the pKd is the negative decadic logarithm of the Kd, by convention in mol/L. For Hsc70 (from UniProt P11142), the pKd was 7.00.
